# Assay results published in patent US20140303356A1.
# Where two headings read alike, the source gives them in different places.
# Legend:
# [1] = molecular target: CH2-CH3 construct G1 (human); assay: native MS, monomer-dimer equilibrium of CH2-CH3 fragment
# [2] = molecular target: CH2-CH3 construct G1-K370T (human); assay: as above
# [3] = molecular target: CH2-CH3 construct G1-K409R (human); assay: as above
# [4] = molecular target: CH2-CH3 construct G1-K409R (human); assay: native MS, monomer-dimer equilibrium of CH2-CH3 fragment, homodimer
# [5] = molecular target: CH2-CH3 construct G1-T350I (human); assay: native MS, monomer-dimer equilibrium of CH2-CH3 fragment
# [6] = molecular target: CH2-CH3 construct G4 (human); assay: as above
# [7] = molecular target: CH2-CH3 construct G4-E357T (human); assay: as above
# [8] = molecular target: CH2-CH3 construct G4-F405A (human); assay: as above
# [9] = molecular target: CH2-CH3 construct G4-F405L (human); assay: as above
# [10] = molecular target: CH2-CH3 construct G4-K370E (human); assay: as above
# [11] = molecular target: CH2-CH3 construct G4-K370Q (human); assay: as above
# [12] = molecular target: CH2-CH3 construct G4-L351K (human); assay: as above
# [13] = molecular target: CH2-CH3 construct G4-R409A (human); assay: as above
# [14] = molecular target: CH2-CH3 construct G4-R409K (human); assay: as above
# [15] = molecular target: CH2-CH3 construct G4-R409L (human); assay: as above
# [16] = molecular target: CH2-CH3 construct G4-R409M (human); assay: as above
# [17] = molecular target: CH2-CH3 construct G4-R409T (human); assay: as above
# [18] = molecular target: CH2-CH3 construct G4-R409W (human); assay: as above
# [19] = molecular target: CH2-CH3 construct G4-S364D (human); assay: as above
# [20] = molecular target: IgG1-7D8-K409G (human) [IgG part: P01857]; assay: cell-based or functional assay
# [21] = molecular target: IgG1-7D8-K409R (human) [IgG part: P01857]; assay: cell-based or functional assay
# [22] = molecular target: IgG1-7D8-K409H (human) [IgG part: P01857]; assay: cell-based or functional assay
# [23] = molecular target: IgG1-7D8-K409A (human) [IgG part: P01857]; assay: cell-based or functional assay
# [24] = molecular target: CD20 on Daudi and Raji cells (UniProt P11836)
# [25] = molecular target: CD20 on Daudi and Raji cells (UniProt P11836); remark: listed apart in the source
# [26] = molecular target: recombinant extracellular domain of EGFR (UniProt P00533); assay: sandwich ELISA: EGFR extracellular domain coated, detection with anti-idiotype 2F2 SAB1.1
Substance,Bispecific binding (% relative to positive control) [20],Bispecific binding (% relative to positive control) [21],Bispecific binding (% relative to positive control) [22],Bispecific binding (% relative to positive control) [23],further results
CH2-CH3 construct G1,,,,,Kd [1]: 0.003 µM; fold-difference (against wild type CH2-CH3 fragment) [1]: 1 fold
CH2-CH3 construct G1-K370T,,,,,Kd [2]: 0.045 µM; fold-difference (against wild type CH2-CH3 fragment) [2]: 0.07 fold
CH2-CH3 construct G1-K409R,,,,,Kd [3]: 0.11 µM; fold-difference (against wild type CH2-CH3 fragment) [3]: 0.03 fold; Kd [4]: 0.11 µM
CH2-CH3 construct G1-T350I,,,,,Kd [5]: 0.007 µM; fold-difference (against wild type CH2-CH3 fragment) [5]: 0.4 fold
CH2-CH3 construct G4,,,,,Kd [6]: 0.048 µM; fold-difference (against wild type CH2-CH3 fragment) [6]: 1 fold
CH2-CH3 construct G4-E357T,,,,,Kd [7]: 41 µM; fold-difference (against wild type CH2-CH3 fragment) [7]: 0.0012 fold
CH2-CH3 construct G4-F405A,,,,,Kd [8]: 19 µM; fold-difference (against wild type CH2-CH3 fragment) [8]: 0.0025 fold
CH2-CH3 construct G4-F405L,,,,,Kd [9]: 25 µM; fold-difference (against wild type CH2-CH3 fragment) [9]: 0.0019 fold
CH2-CH3 construct G4-K370E,,,,,Kd [10]: 0.002 µM; fold-difference (against wild type CH2-CH3 fragment) [10]: 24 fold
CH2-CH3 construct G4-K370Q,,,,,Kd [11]: 0.011 µM; fold-difference (against wild type CH2-CH3 fragment) [11]: 4.3 fold
CH2-CH3 construct G4-L351K,,,,,Kd [12]: 0.74 µM; fold-difference (against wild type CH2-CH3 fragment) [12]: 0.06 fold
CH2-CH3 construct G4-R409A,,,,,Kd [13]: 0.16 µM; fold-difference (against wild type CH2-CH3 fragment) [13]: 0.3 fold
CH2-CH3 construct G4-R409K,,,,,Kd [14]: 0.008 µM; fold-difference (against wild type CH2-CH3 fragment) [14]: 6 fold
CH2-CH3 construct G4-R409L,,,,,Kd [15]: 0.015 µM; fold-difference (against wild type CH2-CH3 fragment) [15]: 3.2 fold
CH2-CH3 construct G4-R409M,,,,,Kd [16]: 0.003 µM; fold-difference (against wild type CH2-CH3 fragment) [16]: 16 fold
CH2-CH3 construct G4-R409T,,,,,Kd [17]: 0.72 µM; fold-difference (against wild type CH2-CH3 fragment) [17]: 0.07 fold
CH2-CH3 construct G4-R409W,,,,,Kd [18]: 34 µM; fold-difference (against wild type CH2-CH3 fragment) [18]: 0.0014 fold
CH2-CH3 construct G4-S364D,,,,,Kd [19]: 0.047 µM; fold-difference (against wild type CH2-CH3 fragment) [19]: 1.02 fold
IgG1-2F8-D399F (antibody),15%,14%,15%,13%,
IgG1-2F8-D399H (antibody),14%,10%,19%,12%,
IgG1-2F8-D399K (antibody),43%,34%,46%,40%,
IgG1-2F8-D399Q (antibody),0%,0%,0%,0%,
IgG1-2F8-D399R (antibody),45%,38%,52%,47%,"Fab-arm exchange compared to the positive control, 20° C., 200 min [20]: 85%; Fab-arm exchange efficiency compared to the positive control, 15° C., 200 min [20]: 85%"

Substance,Bispecific binding (% relative to positive control) [20],Bispecific binding (% relative to positive control) [21],Bispecific binding (% relative to positive control) [22],Bispecific binding (% relative to positive control) [23],further results
IgG1-2F8-F405I (antibody),49%,39%,60%,32%,
IgG1-2F8-F405K (antibody),48%,47%,40%,29%,
IgG1-2F8-F405S (antibody),51%,45%,39%,34%,"Fab-arm exchange compared to the positive control, 20° C., 200 min [23]: 90%; Fab-arm exchange efficiency compared to the positive control, 15° C., 200 min [23]: 65%"
IgG1-2F8-F405T (antibody),47%,42%,46%,35%,
IgG1-2F8-F405V (antibody),46%,37%,43%,36%,
IgG1-2F8-F405W (antibody),20%,16%,18%,17%,
IgG1-2F8-L368A (antibody),33%,25%,37%,33%,
IgG1-2F8-L368D (antibody),50%,41%,54%,49%,
IgG1-2F8-L368E (antibody),38%,37%,42%,32%,
IgG1-2F8-L368G (antibody),53%,44%,53%,46%,
IgG1-2F8-L368H (antibody),25%,21%,29%,26%,
IgG1-2F8-L368N (antibody),52%,43%,54%,47%,
IgG1-2F8-L368R (antibody),64%,52%,91%,55%,"Fab-arm exchange efficiency compared to the positive control, 15° C., 200 min [22]: 100%"
IgG1-2F8-L368S (antibody),45%,37%,53%,39%,
IgG1-2F8-L368T (antibody),51%,39%,56%,42%,
IgG1-2F8-L368V (antibody),49%,33%,51%,42%,
IgG1-2F8-L368W (antibody),56%,41%,60%,56%,
IgG1-2F8-Y407L (antibody),41%,49%,49%,44%,
IgG1-2F8-Y407Q (antibody),9%,1%,44%,4%,
IgG1-2F8-Y407W (antibody),53%,47%,62%,48%,
IgG1-7D8 (from UniProt P01857 1-330) (antibody),,,,,EC50 (read off the curve) [24]: 0.5 µg/mL; EC50 (read off the curve) [25]: 1 µg/mL
IgG1-7D8-K409R (from UniProt P01857 1-330) (antibody),,,,,EC50 (read off the curve) [24]: 0.4 µg/mL
bispecific antibody generated by 2-MEA-induced Fab-arm exchange between IgG1-2F8-F405L and IgG1-7D8-K409R (from UniProt P01857 1-330),,,,,EC50 (read off the curve) [24]: 2 µg/mL; EC50 (read off the curve) [26]: 0.4 µg/mL
